According to patent US7264314B2, “Adrenocorticotropic hormone analogs and related methods” (priority 2004, dated 2007):

Tests used:
[1] = target: T1, adrenal ACTH receptors such as MC-2R (explanted adrenal membrane) (Mus musculus, UniProt Q64326); assay: in vitro Serum-free Adrenal Competitive Binding Assay; set-up: species or system mice; conditions: cold peptide at 10 nM, 100 nM, 1000 nM
T1 construct: the adrenal halves were macerated or otherwise dissociated using Dounce Homogenizer to form a membrane fraction; from tissue; host or cells: membrane fraction of explanted mouse adrenal glands
From the text: ACTH analog compounds that bind to adrenal membrane with a greater affinity than endogenous unmodified ACTH, and are able to displace unmodified ACTH can be identified using an in vitro Serum-free Adrenal Competitive Binding Assay (Example 3). […] A higher CPM level indicates the presence of greater amounts of the radiolabelled compound. […] Column 220 indicates the level of radio-labeled unmodified mACTH(1–24) detected after combining the explanted adrenal membrane with only the radio-labeled mACTH(1–24) for 2 hours.(no competitive binding). Columns 230, 240, and 250 show the results of competitive binding assays for binding of non-radio-labeled (“cold”) mACTH(1–24) to displace the radio-labeled mACTH(1–24) from the explanted adrenal membrane (measured in column 220) by competitive binding to receptors such as MC-2R on the adrenal membrane. […]
ACTH analogs with the ability to bind adrenal receptors with a greater affinity than compounds with known adrenal binding activity (preferably ACTH) can also be identified by performing an in vitro Adrenal Competitive Binding Assay, whereby measurement of the reduction in the amount of the radiolabelled adrenal-binding compound (e.g., ACTH) is measured at various concentrations of non-radio-labeled ACTH analog test compound in a medium containing explanted adrenal membrane. […]

[2] = in vivo; cited from earlier work
[3] = system: ACTH-induced serum corticosterone in dexamethasone-suppressed mice; assay: in vivo Serum Corticosteroid Inhibition Assay; set-up: species or system FVB/N mice; conditions: peptide alone 120 minutes after dexamethasone, blood one hour later
From the text: An in vivo Serum Corticosteroid Inhibition Assay measures the level of corticosteroid or corticosterone in the blood stream of a subject after administering a compound having a first corticosteroid-producing biological activity and a test compound. The compound having the corticosteroid-producing biological activity can be any compound known to induce a detectable increase in corticosteroid production. The test compound can be administered before the corticosteroid-producing compound, in combination with the corticosteroid-producing compound, and/or after the corticosteroid-producing compound. The corticosteroid-producing compound is preferably ACTH, but can also be an ACTH analog with a known corticosteroid-producing biological activity. By performing a series of in vivo Serum Corticosteroid Inhibition Assays using ACTH analog test compounds, ACTH analogs that inhibit the production of corticosteroid relative to the corticosteroid-producing compound used can be identified. Preferably, the ACTH analogs identified in this manner inhibit the production of corticosteroid in the presence of endogenous unmodified ACTH.
The in vivo Serum Corticosteroid Inhibition Assay can include sequential administration of the test compound and the corticosteroid-producing compound by the following steps: first, an agent to suppress endogenous ACTH production was administered to a mouse subject, such as an intraperitoneal injection of dexamethasone; second, after waiting a suitable period of time for suppression of endogenous ACTH production (e.g., 1.5–2.0 hours), a test compound was administered to the mouse by a suitable method, such as intraperitoneal injection; third, after waiting a suitable period of time (e.g., 1 hour) for action of the test compound, a compound with corticosteroid-producing activity can be administered to the mouse by a suitable method, such as intraperitoneal injection; and fourth, after waiting a suitable period of time for the biological activity of both administered compounds to occur (e.g., 1 hour), a blood sample was taken from the subject and the level of serum corticosterone was determined by a suitable method, such as a competitive radioimmunoassay using ^125I RIA kit (ICN, Costa Mesa, Calif.). Optionally, steps two and three can be reversed (administering the corticosteroid-producing compound first, followed by administration of the test compound). The in vivo Serum Corticosteroid Inhibition Assay can also include co-administration of the test compound and the corticosteroid-producing compound by the following steps: first, an agent to suppress endogenous ACTH production was administered to a mouse subject, such as an intraperitoneal injection of dexamethasone; second, after waiting a suitable period of time for suppression of endogenous ACTH production (e.g., 1.5–2.0 hours), the corticosteroid-producing compound and a test compound were co-administered to the mouse by a suitable method, such as intraperitoneal injection; and third, after waiting a suitable period of time for the biological activity of both administered compounds to occur (e.g., 1 hour), a blood sample was taken from the subject and the level of serum corticosterone was determined by a suitable method, such as a competitive radioimmunoassay using ^125I RIA kit (ICN, Costa Mesa, Calif.). Also, in some embodiments, the first step in any in vivo Serum Corticosteroid Inhibition Assay can be replaced by a measurement of the initial endogenous corticosteroid or corticosteroid level in the blood of the subject in the manner of step four, instead of administering the agent to suppress ACTH production. Example 2 describes murine in vivo Serum Corticosteroid Inhibition Assays in detail.
A series of separate in vivo Serum Corticosteroid Inhibition Assays were performed to identify ACTH analogs that inhibit ACTH adrenal hormone production in vivo. […]

T1 sequence (Q64326 whole entry): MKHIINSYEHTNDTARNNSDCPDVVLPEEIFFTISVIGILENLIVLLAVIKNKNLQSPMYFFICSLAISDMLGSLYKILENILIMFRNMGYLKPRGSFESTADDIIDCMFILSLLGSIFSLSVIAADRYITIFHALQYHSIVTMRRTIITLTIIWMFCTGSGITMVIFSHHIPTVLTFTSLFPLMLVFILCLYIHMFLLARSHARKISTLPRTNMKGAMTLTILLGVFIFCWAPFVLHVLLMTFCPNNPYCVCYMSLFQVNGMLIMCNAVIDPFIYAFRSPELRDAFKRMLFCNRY
T1 sequence (Q9D159 whole entry partner): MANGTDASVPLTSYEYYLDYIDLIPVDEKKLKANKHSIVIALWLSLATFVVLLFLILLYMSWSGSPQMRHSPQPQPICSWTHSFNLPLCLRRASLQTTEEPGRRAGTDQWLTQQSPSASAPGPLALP

For “N-Ser^1-Tyr-Ser-Met-Glu^5-His-Phe-Arg-Trp-Gly^10-Lys-Pro-Val-Gly-Lys^15-Lys-Arg-Arg-Pro-Val^20-Lys-Val-Tyr-Pro-Ac [mACTH(1–24), reference compound]”, the “displacement of radio-labeled mACTH(1–24) from explanted adrenal membrane (CPM)” value [1] is listed as “displacement of the radio-labeled mACTH(1–24)”, the “half life in blood” value [2] is listed as “less than 20 minutes” and the “serum corticosterone level at 180 minutes” value [3] is listed as 500 ± 76 ng/mL. The “serum corticosterone level at 180 minutes” value ([3]; listed as ACTH) was 500 ± 76 ng/mL.
